Patent publication US20230365670A1 (SCOUT BIO, published 2023)

B1: fe_αD11_HCCDR1(F/L) (felinized anti-NGF monoclonal antibody, F to L at position 2 of heavy chain CDR1) (antibody, V domains shown)
VH: QVQLMESGADLVQPSESLRLTCVASGLSLTNNNVNWVRQAPGKGLEWMGGVWAGGATDYNSALKSRLTITRDTSKNTVFLQMHSLQSEDTATYYCARDGGYSSSTLYAMDAWGQGTTVTVSA
VL: DIEMTQSPLSLSATPGETVSISCRASEDIYNALAWYLQKPGRSPRLLIYNTDTLHTGVPDRFSGSGSGTDFTLKISRVQTEDVGVYFCQHYFHYPRTFGQGTKLELKR
notes: also called fe1_αD11_HCCDR1(F/L)
B2: fe_αD11 (felinized anti-NGF monoclonal antibody with the CDR sequences of rat αD11) (antibody, V domains shown)
VH: QVQLVESGAELVQPGESLRLTCAASGFSLTNNNVNWVRQAPGKGLEWMGGVWAGGATDYNSALKSRLTITRDTSKNTVFLQMHSLQSEDTATYYCARDGGYSSSTLYAMDAWGQGTTVTVSA
VL: DIEMTQSPLSLSVTPGESVSISCRASEDIYNALAWYLQKPGRSPRLLIYNTDTLHTGVPDRFSGSGSGTDFTLKISRVQTEDVGVYFCQHYFHYPRTFGQGTKLELKR
notes: also called fe1_αD11
B3: fe_αD11_HCCDR2(L/V) (felinized anti-NGF monoclonal antibody, L to V at position 14 of heavy chain CDR2) (antibody, V domains shown)
VH: QVQLVESGGDLVQPGGSLRLTCVASGFSLTNNNVNWVRQAPGKGLEWMGGVWAGGATDYNSAVKSRLTITRDTSKNTVFLQMHSLQSEDTATYYCARDGGYSSSTLYAMDAWGQGTTVTVSA
VL: DIEMTQSPLSLSATPGETVSISCRASEDIYNALAWYLQKPGRSPRLLIYNTDTLHTGVPDRFSGSGSGTDFTLKISRVQTEDVGVYFCQHYFHYPRTFGQGTKLELKR
notes: also called fe_αD11+HCCDR2(LN); fe_αD11_HCCDR2(LN)
B4: ca_αD11_HCCDR2(L/V) (caninized anti-NGF antibody) (antibody, V domains shown)
VH: EVTLQESGPGLVKPSQTLSLTCVVSGFSLTNNNVNWVRQRPGRGLEWMGGVWAGGATDYNSAVKSRISITRDTAKNQVSLQLSSMTTEDTAVYYCARDGGYSSSTLYAMDAWGQGTLVTVSS
VL: EIVMTQSPASLSLSQEEKVTITCRASEDIYNALAWYQQKPGQAPKLLIYNTDTLHTGVPSRFSGSGSGTDYSFTISSLEPEDVAVYFCQHYFHYPRTFGAGTKVELK
notes: The antibody was detected with goat anti-canine IgG-HRP; also called ca_αD11_HCCDR2(LN); CaNGF

Experiments:
mouse (murine) NGF [1] = target: T1, mouse (murine) NGF (mouse (murine), UniProt P01139 122-241, limits assumed); experiment: ELISA, plates coated with 0.1 µg/ml muNGF, antibody at 100 to 1.56 ng/ml for the binding curve, goat anti-feline IgG-HRP detection
T1 construct: also called muNGF
T1 sequence (P01139 122-241 limits assumed): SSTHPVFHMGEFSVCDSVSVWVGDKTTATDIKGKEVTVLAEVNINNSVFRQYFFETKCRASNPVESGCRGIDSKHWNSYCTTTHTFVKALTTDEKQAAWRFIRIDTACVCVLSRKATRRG
Method: Pharmacokinetic (PK) studies were conducted in healthy cats. Four animals were administered each of the felinized anti-NGF antibodies (fe_αD11, fe_αD11+HCCDR1(F/L) and fe_αD11+HCCDR2(LN)) subcutaneously (s.c.) at 2.0 mg/kg on Days 0, 21, 42 and 63. Serum concentrations of the antibodies were assessed over 91 days. The concentration of each antibody in the serum was determined using an NGF-binding ELISA. Briefly, ELISA plates were coated with 0.1 μg/ml mouse (murine) NGF (muNGF) and blocked with PBS/0.05% Tween 20/1% BSA. muNGF-coated wells were then incubated for 1 hour at room temperature with antibody preparations, diluted in PBS/0.05% Tween 20/1% BSA (100 μl/well). Antibody concentrations ranging from 100 ng/ml to 1.56 ng/ml were used to establish a binding curve. After washing, the plates were incubated with a 1/5,000 dilution of goat anti-feline IgG-HRP in PBS/0.05% Tween 20/1% BSA. Plates were washed with PBS/0.05% Tween 20 and developed by the addition of TMB substrate. Development was stopped by the addition of 2M H₂SO₄, absorbance read at 450 nm and background values were subtracted from the absorbance readings. The non-compartmental pharmacokinetic parameters of the three felinized anti-NGF antibodies post-dose 1 and 4 were calculated using PKsolver. software.

mouse (murine) NGF [2] = target: T1, mouse (murine) NGF; experiment: ELISA, plates coated with 0.1 µg/ml muNGF, antibody at 100 to 1.56 ng/ml for the standard curve, goat anti-canine IgG-HRP detection
Method: Pharmacokinetic (PK) studies were conducted in healthy dogs. Four animals were administered purified ca_αD11_HCCDR2(LN) subcutaneously (SC) at 1.0 mg/kg body weight on Day 0 and Day 28 of the study. The ca_αD11_HCCDR2(LN) antibody carries the same CDR sequences as described in Tables 3 and 4, below. Serum concentrations of ca_αD11_HCCDR2(LN) were assessed over 56 days using an NGF-binding ELISA, as detailed below. Pharmacokinetic parameters were determined using PKSolver software (Zhang Y et al. Computer Methods and Programs in Biomedicine. 2010; 99(3):306-314). The emergence of anti-drug antibodies was assessed at Days 28 and 56 using a bridging electrochemiluminescence (ECL) assay, as detailed below.
The concentration of ca_αD11_HCCDR2(LN) in dog serum was determined using an NGF-binding ELISA. Briefly, ELISA plates were coated with 0.1 μg/ml murine NGF (muNGF) and blocked with PBS/0.05% Tween 20/1% BSA. muNGF coated wells were incubated for 1 hour at room temperature with serum diluted in PBS/0.05% Tween 20/1% BSA (100 μl/well). Antibody concentrations ranging from 100 ng/ml to 1.56 ng/ml were used to establish a standard curve. After washing, the plates were incubated with a 1/10,000 dilution of goat anti-canine IgG-HRP in PBS/0.05% Tween 20/1% BSA. […] Development was stopped by the addition of 2M H₂SO₄ and absorbance read at 450 nm and background was subtracted.

Binder	binding result (mouse (murine) NGF [1])	binding result (mouse (murine) NGF [2])
B1	binds	–
B2	binds	–
B3	binds	–
B4	–	binds
